Measurements reported in patent US20220135684A1 (published 2022).
Like-named read-outs stand apart in the source and are kept apart here. One block for each binder: values may come before it.

How the values were obtained:
[1] = target: T1, human CD28 (human, UniProt P10747 19-152); assay: Octet; avid
[2] = target: T2, cynomolgus PDL1 antigen (cynomolgus, UniProt G7PSE7 19-238); assay: SPR (Biacore); EXP2
[3] = target: T2, cynomolgus PDL1 antigen; assay: SPR (Biacore); EXP1
[4] = target: T1, human CD28
[5] = target: T1, human CD28; assay: -; scFv VHVL in 1+1 Fab-scFv-Fc bsAb
[6] = target: T1, human CD28; assay: BLI (Octet); average of HIS1K and SA capture
[7] = target: T3, human PDL1 antigen (human, UniProt Q9NZQ7 19-238); assay: SPR (Biacore); EXP1
[8] = target: T3, human PDL1 antigen

B3: XENP38514 (bispecific antibody)
heavy: EVQLLESGGGLVQPGGSLRLSCAASGFTFSVYDMSWVRQAPGKRLEWVSTISSGGSFTHYPDSVKGRFTISRDNSKNTLYLQMNSLRAEDTAVYYCVRRSLDWYFDVWGAGTTVTVSSASTKGPSVFPLAPSSKSTSGGTAALGCLVKDYFPEPVTVSWNSGALTSGVHTFPAVLQSSGLYSLSSVVTVPSSSLGTQTYICNVNHKPSDTKVDKKVEPKSCDKTHTCPPCPAPPVAGPSVFLFPPKPKDTLMISRTPEVTCVVVDVKHEDPEVKFNWYVDGVEVHNAKTKPREEEYNSTYRVVSVLTVLHQDWLNGKEYKCKVSNKALPAPIEKTISKAKGQPREPQVYTLPPSREEMTKNQVSLTCDVSGFYPSDIAVEWESDGQPENNYKTTPPVLDSDGSFFLYSKLTVDKSRWEQGDVFSCSVMHEALHNHYTQKSLSLSPGK
scFv-Fc: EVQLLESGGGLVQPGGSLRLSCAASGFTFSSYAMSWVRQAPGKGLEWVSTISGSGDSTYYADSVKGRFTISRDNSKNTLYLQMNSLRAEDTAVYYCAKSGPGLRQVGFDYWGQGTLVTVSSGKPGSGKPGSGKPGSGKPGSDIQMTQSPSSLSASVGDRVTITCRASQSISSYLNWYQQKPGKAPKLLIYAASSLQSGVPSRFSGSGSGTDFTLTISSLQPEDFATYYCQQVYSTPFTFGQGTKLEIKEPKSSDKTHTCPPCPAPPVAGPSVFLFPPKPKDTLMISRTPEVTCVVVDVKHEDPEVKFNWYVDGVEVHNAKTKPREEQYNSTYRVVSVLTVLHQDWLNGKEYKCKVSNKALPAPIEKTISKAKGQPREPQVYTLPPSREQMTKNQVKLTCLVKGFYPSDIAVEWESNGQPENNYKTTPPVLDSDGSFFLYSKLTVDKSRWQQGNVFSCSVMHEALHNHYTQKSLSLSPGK
light: EIVLTQSPGTLSLSPGERATLSCRVSSSIQSTNLHWYQQKPGQSPRPLIYGTSVLATGVPVRFSGSGSGTDYTLTISRLEPEDFAVYYCQQWSSYPLYTFGGGTKVEIKRTVAAPSVFIFPPSDEQLKSGTASVVCLLNNFYPREAKVQWKVDNALQSGNSQESVTEQDSKDSTYSLSSTLTLSKADYEKHKVYACEVTHQGLSSPVTKSFNRGEC
Kd [3]: 0.38 nM
Kd [4]: 180 nM

B4: XENP37560 (bispecific antibody)
heavy: EVQLLESGGGLVQPGGSLRLSCAASGFTFSSYDMSWVRQAPGKRLEWVSTISSGGSFTHYPDSVKGRFTISRDNSKNTLYLQMNSLRAEDTAVYYCVRRSGDWYFDVWGAGTTVTVSSASTKGPSVFPLAPSSKSTSGGTAALGCLVKDYFPEPVTVSWNSGALTSGVHTFPAVLQSSGLYSLSSVVTVPSSSLGTQTYICNVNHKPSDTKVDKKVEPKSCDKTHTCPPCPAPPVAGPSVFLFPPKPKDTLMISRTPEVTCVVVDVKHEDPEVKFNWYVDGVEVHNAKTKPREEEYNSTYRVVSVLTVLHQDWLNGKEYKCKVSNKALPAPIEKTISKAKGQPREPQVYTLPPSREEMTKNQVSLTCDVSGFYPSDIAVEWESDGQPENNYKTTPPVLDSDGSFFLYSKLTVDKSRWEQGDVFSCSVMHEALHNHYTQKSLSLSPGK
scFv-Fc: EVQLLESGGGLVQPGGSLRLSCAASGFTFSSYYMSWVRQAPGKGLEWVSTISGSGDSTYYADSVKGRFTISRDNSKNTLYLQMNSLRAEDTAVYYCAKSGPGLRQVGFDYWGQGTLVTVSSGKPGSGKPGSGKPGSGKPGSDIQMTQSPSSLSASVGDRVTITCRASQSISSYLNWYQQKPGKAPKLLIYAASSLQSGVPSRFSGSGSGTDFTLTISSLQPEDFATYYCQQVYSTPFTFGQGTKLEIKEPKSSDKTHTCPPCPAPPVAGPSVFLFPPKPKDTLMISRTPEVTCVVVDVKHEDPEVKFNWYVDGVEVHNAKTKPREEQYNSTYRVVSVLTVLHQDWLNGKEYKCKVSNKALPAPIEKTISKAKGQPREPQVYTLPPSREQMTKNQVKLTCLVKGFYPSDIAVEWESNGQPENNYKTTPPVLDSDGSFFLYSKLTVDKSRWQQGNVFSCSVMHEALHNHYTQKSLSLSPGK
light: EIVLTQSPGTLSLSPGERATLSCRVSSSISSSNLHWYQQKPGQSPRPLIYGTSNLASGVPVRFSGSGSGTDYTLTISRLEPEDFAVYYCQQWSSYPLYTFGGGTKVEIKRTVAAPSVFIFPPSDEQLKSGTASVVCLLNNFYPREAKVQWKVDNALQSGNSQESVTEQDSKDSTYSLSSTLTLSKADYEKHKVYACEVTHQGLSSPVTKSFNRGEC
Kd [5]: 91.6 nM
Kd [6]: 91.6 nM

B5: αPDL1×αCD28 bsAb with PDL1 binding domain 2G4_H1.12_L1.68 and CD28 binding domain 1A7_H1.14_L1.71 (bispecific antibody)
heavy: EVQLLESGGGLVQPGGSLRLSCAASGFTFSVYDMSWVRQAPGKRLEWVSTISSGGSFTHYPDSVKGRFTISRDNSKNTLYLQMNSLRAEDTAVYYCVRRSLDWYFDVWGAGTTVTVSSASTKGPSVFPLAPSSKSTSGGTAALGCLVKDYFPEPVTVSWNSGALTSGVHTFPAVLQSSGLYSLSSVVTVPSSSLGTQTYICNVNHKPSDTKVDKKVEPKSCDKTHTCPPCPAPPVAGPSVFLFPPKPKDTLMISRTPEVTCVVVDVKHEDPEVKFNWYVDGVEVHNAKTKPREEEYNSTYRVVSVLTVLHQDWLNGKEYKCKVSNKALPAPIEKTISKAKGQPREPQVYTLPPSREEMTKNQVSLTCDVSGFYPSDIAVEWESDGQPENNYKTTPPVLDSDGSFFLYSKLTVDKSRWEQGDVFSCSVMHEALHNHYTQKSLSLSPGK
scFv-Fc: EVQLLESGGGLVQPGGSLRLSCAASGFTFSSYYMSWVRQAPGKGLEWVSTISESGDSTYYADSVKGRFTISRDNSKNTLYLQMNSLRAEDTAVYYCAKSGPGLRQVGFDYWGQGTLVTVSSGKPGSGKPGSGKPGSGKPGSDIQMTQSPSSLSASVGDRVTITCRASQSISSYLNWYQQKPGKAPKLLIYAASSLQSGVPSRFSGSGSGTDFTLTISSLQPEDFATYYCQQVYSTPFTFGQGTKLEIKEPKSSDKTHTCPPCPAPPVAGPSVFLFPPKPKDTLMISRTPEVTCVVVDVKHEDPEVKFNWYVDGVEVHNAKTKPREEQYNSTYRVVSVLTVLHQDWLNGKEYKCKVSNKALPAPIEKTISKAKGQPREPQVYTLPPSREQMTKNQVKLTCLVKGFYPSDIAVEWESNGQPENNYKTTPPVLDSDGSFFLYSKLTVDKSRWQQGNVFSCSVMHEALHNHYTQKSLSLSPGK
light: EIVLTQSPGTLSLSPGERATLSCRVSSSIQSTNLHWYQQKPGQSPRPLIYGTSNLASGVPVRFSGSGSGTDYTLTISRLEPEDFAVYYCQQWSSYPLYTFGGGTKVEIKRTVAAPSVFIFPPSDEQLKSGTASVVCLLNNFYPREAKVQWKVDNALQSGNSQESVTEQDSKDSTYSLSSTLTLSKADYEKHKVYACEVTHQGLSSPVTKSFNRGEC
Kd [2]: 1.5 nM

B6: XENP37559 (bispecific antibody)
heavy: EVQLLESGGGLVQPGGSLRLSCAASGFTFSSYDMSWVRQAPGKRLEWVSTISSGGSFTHYPDSVKGRFTISRDNSKNTLYLQMNSLRAEDTAVYYCVRRSGDWYFDVWGAGTTVTVSSASTKGPSVFPLAPSSKSTSGGTAALGCLVKDYFPEPVTVSWNSGALTSGVHTFPAVLQSSGLYSLSSVVTVPSSSLGTQTYICNVNHKPSDTKVDKKVEPKSCDKTHTCPPCPAPPVAGPSVFLFPPKPKDTLMISRTPEVTCVVVDVKHEDPEVKFNWYVDGVEVHNAKTKPREEEYNSTYRVVSVLTVLHQDWLNGKEYKCKVSNKALPAPIEKTISKAKGQPREPQVYTLPPSREEMTKNQVSLTCDVSGFYPSDIAVEWESDGQPENNYKTTPPVLDSDGSFFLYSKLTVDKSRWEQGDVFSCSVMHEALHNHYTQKSLSLSPGK
scFv-Fc: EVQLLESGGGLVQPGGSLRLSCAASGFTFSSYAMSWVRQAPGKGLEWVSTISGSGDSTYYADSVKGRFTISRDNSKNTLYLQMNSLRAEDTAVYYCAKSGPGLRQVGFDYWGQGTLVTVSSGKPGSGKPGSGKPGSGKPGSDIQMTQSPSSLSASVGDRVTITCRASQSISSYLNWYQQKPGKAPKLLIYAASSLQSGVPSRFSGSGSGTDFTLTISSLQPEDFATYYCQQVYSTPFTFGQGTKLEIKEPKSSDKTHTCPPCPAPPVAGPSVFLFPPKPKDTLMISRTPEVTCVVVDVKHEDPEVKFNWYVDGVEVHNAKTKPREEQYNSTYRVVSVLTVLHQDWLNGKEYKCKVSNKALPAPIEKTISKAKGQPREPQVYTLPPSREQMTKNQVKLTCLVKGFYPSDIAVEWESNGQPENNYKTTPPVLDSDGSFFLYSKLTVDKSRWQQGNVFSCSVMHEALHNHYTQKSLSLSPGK
light: EIVLTQSPGTLSLSPGERATLSCRVSSSISSSNLHWYQQKPGQSPRPLIYGTSNLASGVPVRFSGSGSGTDYTLTISRLEPEDFAVYYCQQWSSYPLYTFGGGTKVEIKRTVAAPSVFIFPPSDEQLKSGTASVVCLLNNFYPREAKVQWKVDNALQSGNSQESVTEQDSKDSTYSLSSTLTLSKADYEKHKVYACEVTHQGLSSPVTKSFNRGEC
Kd [7]: 2.6 nM
Kd [3]: 2.2 nM
Kd [8]: 2.6 nM

B7: αPDL1×αCD28 bsAb with PDL1 binding domain 2G4_H1.12_L1.14 and CD28 binding domain 1A7_H1.14_L1.71 (bispecific antibody)
heavy: EVQLLESGGGLVQPGGSLRLSCAASGFTFSVYDMSWVRQAPGKRLEWVSTISSGGSFTHYPDSVKGRFTISRDNSKNTLYLQMNSLRAEDTAVYYCVRRSLDWYFDVWGAGTTVTVSSASTKGPSVFPLAPSSKSTSGGTAALGCLVKDYFPEPVTVSWNSGALTSGVHTFPAVLQSSGLYSLSSVVTVPSSSLGTQTYICNVNHKPSDTKVDKKVEPKSCDKTHTCPPCPAPPVAGPSVFLFPPKPKDTLMISRTPEVTCVVVDVKHEDPEVKFNWYVDGVEVHNAKTKPREEEYNSTYRVVSVLTVLHQDWLNGKEYKCKVSNKALPAPIEKTISKAKGQPREPQVYTLPPSREEMTKNQVSLTCDVSGFYPSDIAVEWESDGQPENNYKTTPPVLDSDGSFFLYSKLTVDKSRWEQGDVFSCSVMHEALHNHYTQKSLSLSPGK
scFv-Fc: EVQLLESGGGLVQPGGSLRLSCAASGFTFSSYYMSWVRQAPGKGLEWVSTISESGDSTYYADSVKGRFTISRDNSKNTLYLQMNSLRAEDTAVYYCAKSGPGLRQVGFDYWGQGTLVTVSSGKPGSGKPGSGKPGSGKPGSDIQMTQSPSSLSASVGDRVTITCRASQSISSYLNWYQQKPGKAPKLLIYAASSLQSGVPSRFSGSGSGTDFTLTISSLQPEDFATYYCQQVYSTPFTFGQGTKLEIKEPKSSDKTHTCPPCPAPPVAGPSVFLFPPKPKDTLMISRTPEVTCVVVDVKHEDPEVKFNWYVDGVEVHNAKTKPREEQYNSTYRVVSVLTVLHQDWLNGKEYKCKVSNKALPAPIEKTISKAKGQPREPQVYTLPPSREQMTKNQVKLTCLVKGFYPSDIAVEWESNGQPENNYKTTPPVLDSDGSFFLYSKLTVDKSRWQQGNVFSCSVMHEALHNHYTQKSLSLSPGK
light: EIVLTQSPGTLSLSPGERATLSCRVSSSIQSSNLHWYQQKPGQSPRPLIYGTSNLASGVPVRFSGSGSGTDYTLTISRLEPEDFAVYYCQQWSSYPLYTFGGGTKVEIKRTVAAPSVFIFPPSDEQLKSGTASVVCLLNNFYPREAKVQWKVDNALQSGNSQESVTEQDSKDSTYSLSSTLTLSKADYEKHKVYACEVTHQGLSSPVTKSFNRGEC
Kd [2]: 0.8 nM

The remaining lines, values ahead:

Kd [1]: 14.5 nM
B1: XENP28428 (antibody, V domains shown)
VH: EVQLLESGGGLVQPGGSLRLSCAASGFTFSSYAMSWVRQAPGKGLEWVSTISGSGDSTYYADSVKGRFTISRDNSKNTLYLQMNSLRAEDTAVYYCAKSGPGLRQVGFDYWGQGTLVTVSS
VL: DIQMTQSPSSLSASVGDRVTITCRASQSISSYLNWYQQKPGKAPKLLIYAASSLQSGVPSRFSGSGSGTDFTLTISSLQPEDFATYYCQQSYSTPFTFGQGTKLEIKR

Kd [2]: 1.7 nM
B2: αPDL1×αCD28 bsAb with PDL1 binding domain 2G4_H1.12_L1.66 and CD28 binding domain 1A7_H1.14_L1.71 (bispecific antibody)
heavy: EVQLLESGGGLVQPGGSLRLSCAASGFTFSVYDMSWVRQAPGKRLEWVSTISSGGSFTHYPDSVKGRFTISRDNSKNTLYLQMNSLRAEDTAVYYCVRRSLDWYFDVWGAGTTVTVSSASTKGPSVFPLAPSSKSTSGGTAALGCLVKDYFPEPVTVSWNSGALTSGVHTFPAVLQSSGLYSLSSVVTVPSSSLGTQTYICNVNHKPSDTKVDKKVEPKSCDKTHTCPPCPAPPVAGPSVFLFPPKPKDTLMISRTPEVTCVVVDVKHEDPEVKFNWYVDGVEVHNAKTKPREEEYNSTYRVVSVLTVLHQDWLNGKEYKCKVSNKALPAPIEKTISKAKGQPREPQVYTLPPSREEMTKNQVSLTCDVSGFYPSDIAVEWESDGQPENNYKTTPPVLDSDGSFFLYSKLTVDKSRWEQGDVFSCSVMHEALHNHYTQKSLSLSPGK
scFv-Fc: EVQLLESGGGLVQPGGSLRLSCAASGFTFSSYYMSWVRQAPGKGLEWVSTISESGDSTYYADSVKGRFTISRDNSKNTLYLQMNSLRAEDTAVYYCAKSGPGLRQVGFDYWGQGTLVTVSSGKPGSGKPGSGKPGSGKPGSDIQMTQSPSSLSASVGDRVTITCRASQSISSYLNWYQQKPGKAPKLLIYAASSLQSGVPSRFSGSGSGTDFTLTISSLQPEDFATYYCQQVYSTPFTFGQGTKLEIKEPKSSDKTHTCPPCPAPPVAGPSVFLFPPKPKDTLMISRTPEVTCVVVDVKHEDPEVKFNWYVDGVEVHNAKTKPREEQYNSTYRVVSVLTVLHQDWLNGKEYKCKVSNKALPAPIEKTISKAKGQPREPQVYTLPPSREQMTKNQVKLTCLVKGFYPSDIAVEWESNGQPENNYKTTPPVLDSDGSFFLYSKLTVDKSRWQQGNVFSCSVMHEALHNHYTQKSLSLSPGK
light: EIVLTQSPGTLSLSPGERATLSCRVSSSIQSTNLHWYQQKPGQSPRPLIYGTSNLATGVPVRFSGSGSGTDYTLTISRLEPEDFAVYYCQQWSSYPLYTFGGGTKVEIKRTVAAPSVFIFPPSDEQLKSGTASVVCLLNNFYPREAKVQWKVDNALQSGNSQESVTEQDSKDSTYSLSSTLTLSKADYEKHKVYACEVTHQGLSSPVTKSFNRGEC

Kd [5]: 229 nM
Kd [6]: 229 nM
B8: XENP36233 (bispecific antibody)
heavy: EVQLLESGGGLVQPGGSLRLSCAASGFTFSSYDMSWVRQAPGKRLEWVSTISSGGSFTHYPDSVKGRFTISRDNSKNTLYLQMNSLRAEDTAVYYCVRRSGDWYFDVWGAGTTVTVSSASTKGPSVFPLAPSSKSTSGGTAALGCLVKDYFPEPVTVSWNSGALTSGVHTFPAVLQSSGLYSLSSVVTVPSSSLGTQTYICNVNHKPSDTKVDKKVEPKSCDKTHTCPPCPAPPVAGPSVFLFPPKPKDTLMISRTPEVTCVVVDVKHEDPEVKFNWYVDGVEVHNAKTKPREEEYNSTYRVVSVLTVLHQDWLNGKEYKCKVSNKALPAPIEKTISKAKGQPREPQVYTLPPSREEMTKNQVSLTCDVSGFYPSDIAVEWESDGQPENNYKTTPPVLDSDGSFFLYSKLTVDKSRWEQGDVFSCSVMHEALHNHYTQKSLSLSPGK
scFv-Fc: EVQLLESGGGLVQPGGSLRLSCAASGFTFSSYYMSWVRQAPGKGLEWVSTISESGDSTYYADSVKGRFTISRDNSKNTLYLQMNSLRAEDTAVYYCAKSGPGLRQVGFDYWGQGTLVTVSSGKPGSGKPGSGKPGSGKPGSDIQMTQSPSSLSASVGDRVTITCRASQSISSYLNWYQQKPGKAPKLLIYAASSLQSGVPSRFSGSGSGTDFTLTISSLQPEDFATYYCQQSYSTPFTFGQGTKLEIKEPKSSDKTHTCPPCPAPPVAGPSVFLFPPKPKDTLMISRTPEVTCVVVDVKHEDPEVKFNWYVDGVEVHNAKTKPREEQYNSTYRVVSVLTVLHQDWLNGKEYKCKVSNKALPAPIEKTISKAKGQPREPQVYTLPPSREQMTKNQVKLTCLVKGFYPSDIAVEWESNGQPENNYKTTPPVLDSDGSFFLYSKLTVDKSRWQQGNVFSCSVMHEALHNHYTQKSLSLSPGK
light: EIVLTQSPGTLSLSPGERATLSCRVSSSISSSNLHWYQQKPGQSPRPLIYGTSNLASGVPVRFSGSGSGTDYTLTISRLEPEDFAVYYCQQWSSYPLYTFGGGTKVEIKRTVAAPSVFIFPPSDEQLKSGTASVVCLLNNFYPREAKVQWKVDNALQSGNSQESVTEQDSKDSTYSLSSTLTLSKADYEKHKVYACEVTHQGLSSPVTKSFNRGEC
